# Measurements as given in the nanobody polyreactivity screen of Harvey et al. (2022).
# Assay: yeast display, Sf9 membrane polyspecificity reagent, FACS + sequencing; frameworks hold sequencing errors
# In short: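 A nanobody's polyreactivity label depends on the gate it was sorted from. Yeast display cells were stained with 10% biotinylated, detergent-solubilized Sf9 membrane reagent for 1 hour at 4 °C, enriched on streptavidin microbeads and sorted by FACS. The low and high (top ~1%) gates were set on anti-HA fluorescence for expression and streptavidin fluorescence for reagent binding.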
row,Sequence,polyreactivity (PSR sort gate)
1,QVQLVESGGGLVQAGGSLRLSCAASGSIFPYYAMGWYRQAPGKERELVAAITSAGSTNYADSVKGRFTISRDNAKNTVYLQMNSLKPEDTAVYYCAKEYYASGRSYRYPQYDYWGQGTQVTVSS,low polyreactivity
2,QVQLVESGGGLVQAGGSLRLSCAASGSIFPYYAMGWYRQAPGKERELVAAITWSGGNTYYADSVKGRFTISRDNAKNTVYLQMNSLKPEDTAVYYFNALYRKYTGYDGYDYWGQGTQVTVSS,high polyreactivity
3,QVQLVESGGGLVQAGGSLRLSCAASGSIFPYYAMGWYRQAPGKERELVADITSSVGSTYYADSVKGRFTISRDNAKNTVYLQMNSLKPEDTAVYYCAALYWFYVYPFTEYDYWGQGTQVTVSS,low polyreactivity
4,QVQLVESGGGLVQAGGSLRLSCAASGSIFPYYAMGWYRQAPGKERELVATITYRGGSTNYADSVKGRFTISRDNAKNTVYLQMNSLKPEDTAVYYCAAYGYVLASPDPYSFVKLGYWGQGTQVTVSS,low polyreactivity
5,QVQLVESGGGLVQAGGSLRLSCAASGSIFPYYTMGWYRQAPGKERELVAAISGSGTSTYYADSVKGRFTISRDNAKNTVYLQMNSLKPEDTAVYYCAKRFRYGYVNYYYWGQGTQVTVSS,low polyreactivity
6,QVQLVESGGGLVQAGGSLRLSCAASGSIFQANAMGWYRQAPGKEWEFVAAINWSTGTTYYADSVKGRFTISRDNAKNTVYLQMNSLKPEDTAVYYCNASDQAKYDYWGQGTQVTVSS,low polyreactivity
7,QVQLVESGGGLVQAGGSLRLSCAASGSIFQEYAMGWYRQAPGKERELVAAIDDSDGSTYADSVKGRFTISRDNAKTTVYLQMNSLKPDDTAVYYCNADIHATYDYWGQGTQVTVSS,low polyreactivity
8,QVQLVESGGGLVQAGGSLRLSCAASGSIFQGNAMGWYRQAPGKERELVAAISWSGDSTYYADSVKGRFTISRDNAKNTVYLQMNSLKPEDTAVYYCNAEWTRDFYEYDYWGQGTQVTVSS,low polyreactivity
9,QVQLVESGGGLVQAGGSLRLSCAASGSIFQGNAMGWYRQAPGKERELVAGITRSGGSTYYADSVKGRFTISRDNAKNTVYLQMNSLKPEDTAVYYCAADYSSDGDYWGQGTQVTVSS,low polyreactivity
10,QVQLVESGGGLVQAGGSLRLSCAASGSIFQGYAMGWYRQAPGKERELVASISRGGSTNYADSVKGRFTISRDNAKNTVYLQMNSLKPEDTAVYYCAARAYWYGRYGYWGQGTQVTVSS,high polyreactivity
11,QVQLVESGGGLVQAGGSLRLSCAASGSIFQGYSMGWYRQAPGKERELVAAITASGGSTYYADSVKGRFTISRDNAKNTVSLKMNSLKPEDTAVYYCATDSYWRHDLYRYEYWGQGSQVTVSS,high polyreactivity
12,QVQLVESGGGLVQAGGSLRLSCAASGSIFQHYAMGWYRQAPGKERELVARINWSGGRTYYADSVKGRFTISRDNAKNTVYLQMNSLKPEDTAVYYCNARYYYWGKAAFNYWGQGTQVTVSS,high polyreactivity
13,QVQLVESGGGLVQAGGSLRLSCAASGSIFQHYAMGWYRQAPGKERELVARISYSGGNTYYADSVKGRFTISRDNAKNTVYLQMNSLKPEDTAVYYCAATRSHYPYRSGGDYWGQGTQVTVSS,low polyreactivity
14,QVQLVESGGGLVQAGGSLRLSCAASGSIFQPYAMGWYRQAPGKERELVAAITNGGSTYYADSVKGRFTISRDNAKNTVYLQMNSLKPEDTAVYYCATDVLLYFEPVNLDYWGQGTQVTVSS,low polyreactivity
15,QVQLVESGGGLVQAGGSLRLSCAASGSIFQVYAMGWYRQAPGKERELVATITSGGSTYYADSVKGRFTISRDNAKNTVYLQMNSLKPEDTAVYYCAAGVVYWWTGYPTISTYDYWGQGTQVTVSS,low polyreactivity
16,QVQLVESGGGLVQAGGSLRLSCAASGSIFQYNAMGWYRQAPGKERELVADITSAGRTYYADSVKGRFTISRDNAKNTVYLQMNSLKPEDTAVYYCNKDYHYHFSWYGYWGQGTQVTVSS,low polyreactivity
17,QVQLVESGGGLVQAGGSLRLSCAASGSIFQYNTMGWYRQAPGKESELVASISWRSGSTYYADSVKGRFTISRDNAKNTVYLQMNSLKPEDTAVYYCAAQVDPWWYDAGYDYWGQGTQVTVSS,low polyreactivity
18,QVQLVESGGGLVQAGGSLRLSCAASGSIFQYYAMGWYRQPPGKEREFVAAITSDGSSTYYADSVKGRFTISRDNAKNTVYLQMNSLKPEDTAVYDCAAGWVGDRRPSMYYWGQGTQVTVSS,high polyreactivity
19,QVQLVESGGGLVQAGGSLRLSCAASGSIFQYYVMGWYRQAPGKERELVAAIRRSGTTYYADSVKGRFTISRDNAKNTVYLQMNSLNPEDTAVYYCNKVRGQEPSNYDYWGQGTQVTVSS,low polyreactivity
20,QVQLVESGGGLVQAGGSLRLSCAASGSIFQYYVMGWYRQAPGKERELVAAIRRSGTTYYADSVKGRFTISRDNAMITVYLQMNSLKPEVTAFYYCKKVRCQEPSNYDYWGQGTQVTVSS,low polyreactivity
21,QVQLVESGGGLVQAGGSLRLSCAASGSIFQYYVMGWYRQAPGKERELVAAISQSGGRTYYADSVKGRFTISRDNAKNTVYLQMNSLKPVDTAVFYCAADSRNAEYDYWGQGTQVTVSS,high polyreactivity
22,QVQLVESGGGLVQAGGSLRLSCAASGSIFRANALGWYRPAPGKERELVAAISASGGRTYYADSVKGRFTISRDNAKNTVYLQMNSLKPEDTAVYYCNAYYGYLYHYTYDYWGQGTQVTVSS,high polyreactivity

row,Sequence,polyreactivity (PSR sort gate)
1,QVQLVESGGGLVQAGGSLRLSCAASGSIFRAYAMGGYRQAPGKERELVAAINWTDGSTYYAASVKGRFTISRDYAKNTVYLQMNSLKPEDTAVYYCAKDSMARHNYWGQGTQVTVSS,low polyreactivity
2,QVQLVESGGGLVQAGGSLRLSCAASGSIFRAYAMGWYRQAPGKERELVAAINWTDGSTYYADSVKGRFTISRDNAKNTVYLQMNSLKPEDTAVYYCAKDSIARHNYWGQGTQVTVSS,low polyreactivity
3,QVQLVESGGGLVQAGGSLRLSCAASGSIFRAYAMGWYRQAPGKERELVATISWSGTSTSYADSVKGRFTISRDNAKNTVYLQMNSLKPEDTAVYYCAAGYASGPRPQTAYYYWGQGTQVTVSS,low polyreactivity
4,QVQLVESGGGLVQAGGSLRLSCAASGSIFRDNAMGWYRQAPGKERELVAAITDSGGRTYYADSVKGRFTISRDNAKNTVYLQMNSLKPEDTAVYYCAAGQSGYAGRRPAFGYWGQGTQVTVSS,low polyreactivity
5,QVQLVESGGGLVQAGGSLRLSCAASGSIFRDNVMGWYRQAPGKERELVAAISKRGGSTYYADSVKGRFTISRDNAKNTVYLQMNSLKPEDTAVYYCAAPQGRSHYYRYDYWGQGTQVTVSS,high polyreactivity
6,QVQLVESGGGLVQAGGSLRLSCAASGSIFRDYAMGWYRQAPGKEMELVAAISSDGSTYYADSVKGRFTISRDNAKNTVYLQMNSLKPEDTAVYYCNAAHVAHRFIGYTRWNYYYWGQGTQVTVSS,high polyreactivity
7,QVQLVESGGGLVQAGGSLRLSCAASGSIFRDYAMGWYRQAPGKERELVAAITWSGGRTYYADSVKGRFTISRDNAKNTVYLQMNSLKPEDTAVYYCAARSTRQYEYDYWGQGTQVTVSS,low polyreactivity
8,QVQLVESGGGLVQAGGSLRLSCAASGSIFRFYAMGWYRQAPGKERELVAAITRRGGRTYYADSVKGRFTISRDNAKNTVYLQMNSLIPEDTAVYYCAAASKKPPSFEYNYWGQGTQLTVSS,high polyreactivity
9,QVQLVESGGGLVQAGGSLRLSCAASGSIFRFYAMGWYRQAPGKERELVATISKRGGTTYYADSVKGRFTISRDNAKNTVYLQMNSLKPEDTAVYYCAVRLYLEMDYWGQGTPVTVSS,high polyreactivity
10,QVQLVESGGGLVQAGGSLRLSCAASGSIFRFYAMGWYRQAPGTERELVAAISSSGSSTYYADSVKGRFTISRDNAMNTVYLQMNSLKPEDTAVYYCNARLGWSRAWSMDSWGQGTQVTVSS,high polyreactivity
11,QVQLVESGGGLVQAGGSLRLSCAASGSIFRFYTMGWYRQAPGKERELVAAIRYRVTSTYYADSVKGRFTMSRDNAKNTVYLQMNSLTPEDTAVYYCAVRRAKRRSQGVSYASYAGNYNYWGLGTQVTVSS,high polyreactivity
12,QVQLVESGGGLVQAGGSLRLSCAASGSIFRGKAMGWYRQAPGKERELVAAITRSGGRTYYADSVKGRFTISRDNAKNTVYLQMNSLKPDDTAVYYCAAEYYTGLGYWGQGTQVTVSS,high polyreactivity
13,QVQLVESGGGLVQAGGSLRLSCAASGSIFRGNAMGWSRQAPAKERELVAAISKSGGSTYYADSVKGRFTISRDNAKNTVYLQMNSLKPEDTAVYYCAARTTYLYGMYYWGQGTQVTVSS,low polyreactivity
14,QVQLVESGGGLVQAGGSLRLSCAASGSIFRGNAMGWYRQAPGKERELVASISYSGGSTYYADSVKGRFTISRDNAKNTVYLQMNSLKPEDTAVYYCAADESVAYPYSGYQYYRHIYDYWGQGTQVTVSS,low polyreactivity
15,QVQLVESGGGLVQAGGSLRLSCAASGSIFRGNGMGWYTQAPGKERELVAAISRSGGRTYYADSVKGRFTISRDNAKNTVYLQMISLNPEDTAVYSCNAARSYQYDYWGQGTQVTVSS,high polyreactivity
16,QVQLVESGGGLVQAGGSLRLSCAASGSIFRGYAMGWYRQAPGKERELVAAIRYSGARTYYADSVKGRFTISRDNAKNTVYLQMNSLKPEDTAVYYCNARYIRSYDYWGQGTQVTVSS,high polyreactivity
17,QVQLVESGGGLVQAGGSLRLSCAASGSIFRGYAMGWYRQAPGKERELVAAITSRGGSTYYADSVKGRFTISRDIAKNTVYLQMNSLKPEDTAVYYCNKRVYYPWGQGTQVTVSS,high polyreactivity
18,QVQLVESGGGLVQAGGSLRLSCAASGSIFRGYAMGWYRQAPGKERELVAAITSSGGSTNYADSVKGRFTISRDNAKNTVYLQMNSLKPEDTAVYYCNATSEEVAEYDYWGQGTQVTVSS,low polyreactivity
19,QVQLVESGGGLVQAGGSLRLSCAASGSIFRGYAMGWYRQAPGKERELVASIRWRGGRTNYADSVKGRFTISRDNAKNTVYLQRNSLKPEDTAVYYCNADQQTIRSAKNDYWGQGTQVTVSS,low polyreactivity
20,QVQLVESGGGLVQAGGSLRLSCAASGSIFRGYDMGWYRQAPGKERELVARISRGTGTHYADSVKGRFTISRDNAKNTVYLQMNSLKPEDTAVYYCAARYRYYPVTTRGYYWGQGTQVTVSS,high polyreactivity
21,QVQLVESGGGLVQAGGSLRLSCAASGSIFRINAMGWYITAPGKERELVAAISWSGGSTYYADSVKGRFTISRDNAKNTVYLQMNSLKPEDTAVYYCAAVVSKSSFDYWGQGTQVTVSS,low polyreactivity
